The target in series [1] is T1, Noc (nucleoid occlusion protein) (Bacillus subtilis, UniProt P37524).
T1 construct: B. subtilis Noc (WT), His6-tagged
Nature of the series: ITC. The format is binding.

The target of series [2] is T2, Noc (N121S) (Bacillus subtilis, UniProt P37524, N121S).
T2 construct: B. subtilis Noc (N121S), His6-tagged
Nature of the series: ITC. The format is binding.

Series [3] concerns the target Geobacillus thermoleovorans NocNΔ26ΔCTD (Geobacillus thermoleovorans). Nature of the series: crystal structure; G. thermoleovorans NocNΔ26ΔCTD, premixed with 1 mM CTPγS and 1 mM MgCl2 (no nucleotide in the density), 2.95 Å, space group C222(1), one copy per asymmetric unit; dimer with a symmetry mate.
Series [4] concerns the molecule itself. Nature of the series: cross-linking; BMOE (1 mM) cysteine crosslinking of 10 uM Noc variant ± 1 mM NTP ± 1 uM 22 bp NBS/parS DNA; 10 mM Tris-HCl pH 7.4, 200 mM NaCl, 1 mM MgCl2; 10 min at 22°C; SDS-PAGE, Coomassie, band quantification; reads self-engagement of the N-terminal domain.
Series [5] deals with T3, Noc (Bacillus subtilis, UniProt P37524 1-283).
T3 sequence: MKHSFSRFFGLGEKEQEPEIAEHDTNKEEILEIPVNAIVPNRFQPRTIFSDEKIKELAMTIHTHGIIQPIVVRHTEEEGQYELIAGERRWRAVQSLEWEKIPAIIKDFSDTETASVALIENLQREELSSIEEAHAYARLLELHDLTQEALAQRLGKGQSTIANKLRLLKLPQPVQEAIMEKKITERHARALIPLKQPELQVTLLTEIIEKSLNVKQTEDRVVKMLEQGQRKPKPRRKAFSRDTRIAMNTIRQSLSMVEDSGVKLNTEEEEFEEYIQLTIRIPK
Nature of the series: BLI; 1 mM CTP; BLI: 100 mM Tris-HCl pH 8.0, 150 mM NaCl, 1 mM MgCl2, 0.005% Tween 20, 22 C; 1 uM Noc dimer +/- 1 mM NTP. The conditions noted are these: protein: recombinant; tags: C-terminal His6; chain copies: 2; label: biotin on both ends; blunt. Background: BLI is a label-free optical method that tracks binding on a fibre tip over time.

In another series the target is T4, Noc (R89A) (Bacillus subtilis, UniProt P37524 1-283, R89A).
T4 sequence: T3 sequence with R89A
Nature of the series: BLI; 1 mM CTP; nucleates, does not spread; BLI: 100 mM Tris-HCl pH 8.0, 150 mM NaCl, 1 mM MgCl2, 0.005% Tween 20, 22 C; 1 uM Noc dimer +/- 1 mM NTP. The note with it: protein: recombinant; tags: C-terminal His6; chain copies: 2; label: biotin on both ends; blunt.

The target of series [6] is T5, Noc (N121S) (Bacillus subtilis, UniProt P37524 1-283, N121S).
T5 sequence: T3 sequence with N121S
The description is as above. The conditions noted are these: protein: recombinant; tags: C-terminal His6; chain copies: 2; label: biotin on both ends; blunt.

Series [7] concerns the target T3, Noc. Nature of the series: BLI; 1 uM Noc; 1 mM CTP; BLI: 100 mM Tris-HCl pH 8.0, 150 mM NaCl, 1 mM MgCl2, 0.005% Tween 20, 22 C; 1 uM Noc dimer +/- 1 mM NTP. The conditions noted are these: protein: recombinant; tags: C-terminal His6; chain copies: 2; label: biotin on both ends; blunt.
Series [8] deals with T3, Noc. Nature of the series: BLI; 1 mM CTP; no increase beyond nucleation; BLI: 100 mM Tris-HCl pH 8.0, 150 mM NaCl, 1 mM MgCl2, 0.005% Tween 20, 22 C; 1 uM Noc dimer +/- 1 mM NTP. The note with it: protein: recombinant; tags: C-terminal His6; chain copies: 2; label: biotin at M13F end; 5' overhang 4 nt (GATC) at BamHI end.

Numbering of substitutions follows the chain as printed. In names and notes the source's numbering stands.

From paper PMC8429893, “CTP regulates membrane-binding activity of the nucleoid occlusion protein Noc” (Molecular Cell, 2021) come the findings set out here.

T2 sequence (P37524 whole entry N121S): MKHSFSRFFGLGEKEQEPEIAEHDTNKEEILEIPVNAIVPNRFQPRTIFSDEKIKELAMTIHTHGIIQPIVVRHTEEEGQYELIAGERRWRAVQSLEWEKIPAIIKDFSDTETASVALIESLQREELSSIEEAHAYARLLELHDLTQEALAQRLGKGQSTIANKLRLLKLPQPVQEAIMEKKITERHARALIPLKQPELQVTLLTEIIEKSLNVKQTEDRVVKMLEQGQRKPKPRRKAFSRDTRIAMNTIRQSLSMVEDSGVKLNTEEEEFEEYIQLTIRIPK

As a reminder, the Kd is a measure of binding affinity in units of concentration. Lower therefore signals higher affinity. Consider `Nc1ccn([C@@H]2O[C@H](COP(=O)(O)OP(=O)(O)OP(O)(O)=S)[C@@H](O)[C@H]2O)c(=O)n1` [CTPɣS], for which the Kd in series [1] is 68 ± 23 µM; at Noc (N121S) [2], 232 ± 66 µM.
What is called stoichiometry N is the number of molecules, sites or subunits per partner or assembly. Consider “Geobacillus thermoleovorans NocNΔ26ΔCTD (domain or fragment)”, for which the stoichiometry N in [3] stood at 2.

B1: B. subtilis NocNΔ10 (E29C) (domain or fragment, Bacillus subtilis, UniProt P37524 11-283, looked up)
chain: LGEKEQEPEIAEHDTNKECILEIPVNAIVPNRFQPRTIFSDEKIKELAMTIHTHGIIQPIVVRHTEEEGQYELIAGERRWRAVQSLEWEKIPAIIKDFSDTETASVALIENLQREELSSIEEAHAYARLLELHDLTQEALAQRLGKGQSTIANKLRLLKLPQPVQEAIMEKKITERHARALIPLKQPELQVTLLTEIIEKSLNVKQTEDRVVKMLEQGQRKPKPRRKAFSRDTRIAMNTIRQSLSMVEDSGVKLNTEEEEFEEYIQLTIRIPK
On to B1, for which the binding result in [4] is reported as “binds”.

B2: 170 bp NBS DNA, closed (dsDNA)
DNA 1: CGCCAGGGTTTTCCCAGTCACGACGTTGTAAAACGACGGCCAGAATTCGCAACGTGTATTTCCCGGGAAATAGCCTTGAACTGATAACGACTCTATCATTGATAGAGTGTTCTCTCCACGGGATCCCCAGGCATGCAAGCTTGGCGTAATCATGGTCATAGCTGTTTCCT
DNA 2: AGGAAACAGCTATGACCATGATTACGCCAAGCTTGCATGCCTGGGGATCCCGTGGAGAGAACACTCTATCAATGATAGAGTCGTTATCAGTTCAAGGCTATTTCCCGGGAAATACACGTTGCGAATTCTGGCCGTCGTTTTACAACGTCGTGACTGGGAAAACCCTGGCG
For B2, the binding signal with Noc [5] was ~6 fold BLI response vs no CTP. Further, the binding result in the series with Noc (R89A) and with Noc (N121S) [6] was “binds” in each case.

B3: 170 bp parS DNA, closed (dsDNA)
DNA 1: B2 DNA 1 with A58G, C63A, G66T, T71C
DNA 2: B2 DNA 2 with A100G, C105A, G108T, T113C
With B3, in the series with Noc [7], the binding result was “no binding”.

B4: 170 bp NBS DNA, BamHI-cut (open) (dsDNA)
DNA 1: CGCCAGGGTTTTCCCAGTCACGACGTTGTAAAACGACGGCCAGAATTCGCAACGTGTATTTCCCGGGAAATAGCCTTGAACTGATAACGACTCTATCATTGATAGAGTGTTCTCTCCACGG
DNA 2: GATCCCGTGGAGAGAACACTCTATCAATGATAGAGTCGTTATCAGTTCAAGGCTATTTCCCGGGAAATACACGTTGCGAATTCTGGCCGTCGTTTTACAACGTCGTGACTGGGAAAACCCTGGCG
As for B4, the binding result with Noc [8] was “binds”.
